Source: paper doi:10.1101/2021.08.25.457658
Read-outs that look alike come from different tables or passages of the source.

Tests used:
[1] = target: T1, GST-p50 (NF-kB p50 subunit) (UniProt P19838-2 1-433, del434-969); test: EMSA
[2] = target: T1, GST-p50 (NF-kB p50 subunit); test: EMSA; remark: listed apart in the source

Binder | binding result [1] | binding result [2]
Spic promoter NF-kB site mutant (dsDNA) DNA 1: GCTGCAAAGCCGATTTTTTTT DNA 2: AAAAAAAATCGGCTTTGCAGC | no binding | –
Spic promoter NF-kB site WT (dsDNA) DNA 1: GCTGCAAAGGGGATTTTTTTT DNA 2: AAAAAAAATCCCCTTTGCAGC | – | binds
